Reference: the supplement of paper PMC10567573

B1: RIPK4 (parent)
chain: VIDLFDEQGLSALHLAAQGRHAQT
B2: MFF (parent)
chain: MAEISRIQYEMEYTEGISQRMRVP
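Further: lentivirally expressed fusions sorted by FACS into six bins by GFP to DsRed ratio, PSI derived from sequencing read proportions per bin multiplied by bin number.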

Variants of: B1
Assay: protein stability index of a GFP-peptide fusion (GPS, HEK-293T) (PSI 1-6); higher = more stable
Settings: c terminus: a fixed tail appended
For E7N, the protein stability index was 2.36.
E7H showed a protein stability index of 2.17.
E7C gave a protein stability index of 1.73.
Work on E7F yielded a protein stability index of 1.68.
Work on E7M yielded a protein stability index of 1.1.
E7L gave a protein stability index of 1.92.
Work on E7K yielded a protein stability index of 1.86.
Work on E7D yielded a protein stability index of 2.73.
Variant E7G has a protein stability index of 2.01.
Variant E7A has a protein stability index of 2.23.
E7I gave a protein stability index of 2.2.
In the case of D6M, the protein stability index is reported as 1.97.
D6A showed a protein stability index of 1.91.
Work on D6I yielded a protein stability index of 4.12.
D6R gave a protein stability index of 2.04.
With D6F the protein stability index was 2.33.
In the case of D6S, the protein stability index is reported as 2.57.
Work on D6P yielded a protein stability index of 3.13.
With D6C the protein stability index was 2.39.
In the case of D6Y, the protein stability index is reported as 1.63.
With D6G the protein stability index was 1.77.
D6T showed a protein stability index of 2.15.
Work on D6Q yielded a protein stability index of 2.13.
With D6W the protein stability index was 2.55.
With D6H the protein stability index was 2.06.
With D6E the protein stability index was 2.71.
Variant D6V has a protein stability index of 3.75.
Variant D6K has a protein stability index of 1.81.
D6N gave a protein stability index of 1.96.
With V1Y the protein stability index was 2.16.
Work on V1E yielded a protein stability index of 4.09.
Variant V1L has a protein stability index of 2.7.
With V1F the protein stability index was 1.88.
Work on V1H yielded a protein stability index of 3.45.
V1N gave a protein stability index of 3.7.
Variant V1I has a protein stability index of 2.43.
In the case of V1G, the protein stability index is reported as 3.61.
In the case of V1S, the protein stability index is reported as 3.62.
Variant V1W has a protein stability index of 2.76.
With V1A the protein stability index was 3.82.
V1P gave a protein stability index of 3.72.
V1C showed a protein stability index of 2.88.
Work on V1M yielded a protein stability index of 3.37.
V1Q gave a protein stability index of 4.09.
V1K showed a protein stability index of 3.92.
Work on V1D yielded a protein stability index of 4.32.
For V1T, the protein stability index was 3.82.
With V1R the protein stability index was 3.41.
Variant D3I has a protein stability index of 2.71.
Work on D3L yielded a protein stability index of 1.89.
With D3Q the protein stability index was 2.46.
In the case of D3S, the protein stability index is reported as 2.69.
D3H showed a protein stability index of 1.68.
Variant D3Y has a protein stability index of 1.1.
D3W gave a protein stability index of 2.95.
D3R gave a protein stability index of 2.34.
In the case of D3A, the protein stability index is reported as 1.79.
D3C gave a protein stability index of 2.25.
Work on D3G yielded a protein stability index of 2.58.
In the case of D3V, the protein stability index is reported as 1.58.
With D3K the protein stability index was 2.31.
With D3F the protein stability index was 3.19.
For D3P, the protein stability index was 2.81.
D3N gave a protein stability index of 2.7.
D3M gave a protein stability index of 1.36.
For D3E, the protein stability index was 2.66.
D3T gave a protein stability index of 2.17.
I2N showed a protein stability index of 3.79.
Work on I2P yielded a protein stability index of 3.66.
Variant I2M has a protein stability index of 3.26.
Variant I2V has a protein stability index of 3.67.
With I2A the protein stability index was 3.92.
I2W gave a protein stability index of 2.36.
I2S gave a protein stability index of 3.88.
In the case of I2C, the protein stability index is reported as 3.4.
Work on I2Y yielded a protein stability index of 2.97.
With I2H the protein stability index was 4.22.
For I2E, the protein stability index was 4.42.
With I2R the protein stability index was 3.24.
In the case of I2G, the protein stability index is reported as 3.41.
Variant I2K has a protein stability index of 3.89.
For I2Q, the protein stability index was 3.76.
I2D showed a protein stability index of 4.21.
In the case of I2F, the protein stability index is reported as 2.42.
For I2T, the protein stability index was 3.64.
Variant I2L has a protein stability index of 2.25.
Variant F5Q has a protein stability index of 3.91.
F5P gave a protein stability index of 4.81.
With F5H the protein stability index was 3.9.
Work on F5S yielded a protein stability index of 3.67.
With F5R the protein stability index was 3.64.
F5W showed a protein stability index of 2.44.
F5N showed a protein stability index of 2.98.
For F5V, the protein stability index was 3.39.
Work on F5T yielded a protein stability index of 3.94.
Variant F5I has a protein stability index of 2.89.
F5L gave a protein stability index of 2.95.
F5G showed a protein stability index of 3.86.
In the case of F5D, the protein stability index is reported as 4.18.
For F5A, the protein stability index was 4.21.
Work on F5E yielded a protein stability index of 4.6.
For F5C, the protein stability index was 3.08.
Variant F5K has a protein stability index of 4.16.
Variant F5M has a protein stability index of 2.78.
F5Y gave a protein stability index of 3.22.
With L4M the protein stability index was 3.11.
Work on L4C yielded a protein stability index of 2.76.
Work on L4Y yielded a protein stability index of 3.52.
L4T gave a protein stability index of 3.79.
L4V showed a protein stability index of 3.26.
L4D gave a protein stability index of 4.18.
L4I gave a protein stability index of 2.86.
L4F showed a protein stability index of 2.66.
For L4Q, the protein stability index was 3.98.
With L4A the protein stability index was 3.72.
Work on L4H yielded a protein stability index of 3.81.
For L4P, the protein stability index was 3.73.
For L4E, the protein stability index was 4.29.
Variant L4N has a protein stability index of 3.12.
With L4S the protein stability index was 3.94.
Variant L4K has a protein stability index of 3.92.
Work on L4W yielded a protein stability index of 2.85.
L4G showed a protein stability index of 3.89.
For L4R, the protein stability index was 3.34.

Variants of: B2
Assay: as above
Settings: c terminus: a fixed tail appended
With E15S the protein stability index was 1.94.
Variant Y9E has a protein stability index of 3.6.
With Y13M the protein stability index was 2.67.
In the case of Y13S, the protein stability index is reported as 3.79.
G16S gave a protein stability index of 2.2.
With G16T the protein stability index was 2.22.
G16N gave a protein stability index of 2.72.
Work on E12K yielded a protein stability index of 2.64.
E12Q gave a protein stability index of 1.87.
With I7T the protein stability index was 3.4.
For R6K, the protein stability index was 3.15.
Work on M21D yielded a protein stability index of 3.41.
M21H gave a protein stability index of 3.6.
Work on S18D yielded a protein stability index of 2.97.
For S18G, the protein stability index was 2.51.
With S18Q the protein stability index was 2.62.
T14Y gave a protein stability index of 2.04.
In the case of T14M, the protein stability index is reported as 2.2.
With T14W the protein stability index was 1.97.
P24G gave a protein stability index of 2.44.
Work on P24I yielded a protein stability index of 1.91.
In the case of R22D, the protein stability index is reported as 2.6.
R22W gave a protein stability index of 2.01.
Variant R22H has a protein stability index of 2.46.
With E10F the protein stability index was 1.96.
Work on V23P yielded a protein stability index of 2.54.
For V23A, the protein stability index was 2.31.
Variant V23L has a protein stability index of 2.46.
In the case of I4F, the protein stability index is reported as 2.56.
In the case of Q8T, the protein stability index is reported as 2.38.
For Q8N, the protein stability index was 2.85.
With I17R the protein stability index was 3.67.
For I17V, the protein stability index was 2.96.
In the case of I17N, the protein stability index is reported as 3.3.
Variant I17G has a protein stability index of 3.55.
I17H gave a protein stability index of 3.4.
In the case of M1C, the protein stability index is reported as 1.85.
For M1D, the protein stability index was 3.56.
Variant M1T has a protein stability index of 3.28.
With M11L the protein stability index was 2.37.
Work on M11E yielded a protein stability index of 4.06.
With M11T the protein stability index was 3.15.
Work on M11K yielded a protein stability index of 3.27.
